Experimental data published in US20060263354A1 (Amgen, published 2006).

How the values were obtained:
mature GDF8 = molecular target: T1, mature GDF8 (human, UniProt O14793 267-375); test: immunoprecipitation from 293T conditioned medium, western blot
T1 construct: also called myostatin; mstn
T1 sequence: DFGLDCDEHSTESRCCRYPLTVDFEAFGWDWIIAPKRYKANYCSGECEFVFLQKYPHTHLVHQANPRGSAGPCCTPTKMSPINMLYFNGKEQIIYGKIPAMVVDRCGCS
Experimental: An immunoprecipitation study was conducted to test the binding of myostatin antibodies to mature GDF8 and mature GDF8/propeptide complex. 293T cells were transfected with GDF-8 expression construct. Conditioned media was harvested 7 days after transfection, which contained mature GDF8 and latent complex. 100 μl conditioned media was incubated with 10 μg myostatin antibodies for 16 hours at 4° C. Protein A Dynabeads (Dynal, Norway) were added and incubated for 90 minutes at 4° C. The immunoprecipitate was collected using MPC-E magnetic concentrator (Dynal, Norway), and washed four times with PBS. […] Western blotting was performed using Odyssey infrared imaging system (Li-Cor). Mature GDF8 and unprocessed GDF8 were detected using goat anti-myostatin antibody (R&D systems, Cat# AF788). Rabbit anti-propeptide polyclonal antibody (made in-house) was used to detect both propeptide and unprocessed GDF8. […] No other antibodies immunoprecipitated mature GDF8, propeptide, or unprocessed GDF8. Lane 4 is the 1/10 medium loading control, and lane 7 is immunoprecipitation control with medium only.

[1] = molecular target: T2, mature GDF8 from mouse serum (mouse, UniProt O08689 268-376); test: immunoprecipitation from mouse serum, western blot
T2 construct: mature; also called mouse serum mature GDF8
T2 sequence (looked up): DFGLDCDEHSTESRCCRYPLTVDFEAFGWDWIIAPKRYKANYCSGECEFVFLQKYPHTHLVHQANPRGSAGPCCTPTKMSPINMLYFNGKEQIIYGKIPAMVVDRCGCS
Experimental: An immunoprecipitation study was conducted to test the binding of myostatin antibodies to mature GDF8 from mouse serum. […] mouse serum (Rockland, Cat ## D208-00) was incubated with 20 μg myostatin antibodies for 16 hours at 4° C. Protein A Dynalbeads were added and incubated for 90 minutes at 4° C. The immunoprecipitate was collected using MPC-E magnetic concentrator (Dynal, Norway), and washed four times with PBS. […] Western blotting was performed using Odyssey Infrared imaging system (Li-Cor). Mature GDF8 was detected using biotinylated goat anti-myostatin antibody (R&D systems, Cat# BAF788). […] It is known that mature GDF8 in the serum binds to many inhibitory proteins such as propeptide, FLRG, and GASAP1 (Hill et al. (2002) The myostatin propeptide and the follistatin-related gene are inhibitory binding proteins of myostatin in normal serum. J. Biol. Chem. 277: 40735-40741. Hill et al. (2003) Regulation of myostatin in vivo by growth and differentiation factor-associated serum protein-1: a novel protein with protease inhibitor and follistatin domains. Mol. Endocrin. 17(6): 1144-1154). […] Such non-competitive neutralizing antibodies would be advantageous in vivo.

peptide 1 = molecular target: T3, peptide 1 (human); test: peptide ELISA
T3 construct: also called peptide 1 of mature GDF8
T3 peptide: DFGLDCDEHSTESRCCRY
Experimental: (§1) Eleven peptides were generated from mature GDF8 to test and localize antibody binding (See FIG. 6). Peptide ELISA was done on glutaraldehyde coated ELISA plates and on uncoated ELISA plates (NUNC-Immuno™ plate MaxiSorp™ surface, Nalge Nunc International, Cat. No. 439454). Glutaraldehyde coated plates were prepared by mixing 250 μl glutaraldehyde (50% w/v) with 50 ml deionized water and adding 200 μl of the solution into each well. Plates were incubated for at least 1 hour at room temperature. The glutaraldehyde was shaken out of the plate and smashed upside down on paper towels to remove all the liquid prior to use.
(§2) ELISA plates were coated with peptide at 1.0 μg/well/50 μl (in Sodium bicarbonate buffer, pH 9.6) for at least 4 hours, and then blocked with 200 μl blocker (1%BSA, 1%Ethanolamine pH 7.4) for minimum 4 hours. Plates were washed with PBST three times with 200 μl/well. 50 μl antibody (1 μg/ml in PBST, Phosphate-buffered saline (PBS) with 0.05% Tween-20) sample was added to the wells for 1 hour. Plates were then washed with PBST three times. 50 μl anti-human IgG-horseradish peroxidase(HRP) (Pierce, Cat# 31420) diluted in PBST is added for another hour. The wells were washed again with TBST three times, and then with deionized water twice. 50 μl ABTS (MOSS) was added for 5-20 minutes, and the signal was detected at 405 nm in a colormetric plate reader.

peptide 5 = molecular target: T4, peptide 5 (human); test: peptide ELISA
T4 construct: also called peptide 5 of mature GDF8
T4 peptide: CCTPTKMSPINMLYFNGK
Experimental: as §1, §2

Measured: binding result

B1: 2-112-1 (antibody, V domains shown)
VH: EVQLLESGGGLIQPGGSLRLSCAASGFTFSSFAMSWVRQAPGKGLEWVSTISGSGGYTFYADSVKGRFTISRDNSKNTLYLQMNSLRAEDTAVYYCAKDGRYNWNYGAFDIWGQGTMVTVSS
VL: EIVMTQSPATLSVSPGERATLSCRASQSVSSNLAWYQQKPGQAPRLLIYGASTRATGFPARFSGSGSGTEFTLTISSLQSEDFAIYYCQQYNNWPLTFGGGTKVEIKR
notes: Full-length deduced chains
binds: all assays above

B2: 2-177-1 (antibody, V domains shown)
VH: EVQLLESGGGLIQPGGSLRLSCAASGFTFSSFAMSWVRQAPGKGLEWVSTISGSGGSTYYADFVKGRFTISRDNSKNTLYLQMNSLRAEDTAVYYCAKDGRYNWNYGAFDIWGQGTMVTVSS
VL: EIVMTQSPATLSVSPGERATLSCRASQSVRSNLAWFQQKPGQAPRLLIYGASTRATGIPARFSGSGSGTEFTLTISSLQSEDFAVYYCQQYNNWPLTFGGGTKVEIKR
notes: Full-length deduced chains
binds: all assays above

B3: 2-43-1 (antibody, V domains shown)
VH: EVQLLESGGGLVQPGGSLRLSCAASGFTFSSYAMSWVRQAPGKGLEWVSAISGSGGSTFYADSVTGRFTISRDNSKNTLFLQLNSLRAEDTAVYHCAKDGRFNWNYGASDIWGQGTMVTVSS
VL: EIVMTQSPATLSVSPGERATLSCRTSQSVSSNLAWYQQKPGQAPRLLIYGASTRATGIPARFSGSGSGTEFTLTISSLQSEDFAVYYCQQYNNWPLTFGGGTKVEIKR
notes: Full-length deduced chains
binds: all assays above
